In US20120184713A1, “Compositions and Methods for Modulation of Bone Density and Biomineralization” (priority 2011, published 2012):
Read-outs that look alike come from different tables or passages of the source.

What was measured:
Casein Kinase I = molecular target: T1, Casein Kinase I (Rattus norvegicus, UniProt Q06486); experiment: Casein Kinase I control kinase assay with peptide substrates; assay type: biochemical; settings: in vitro kinase reaction, FIG. 6
T1 construct: purchased NEB
T1 sequence (Q06486 1-317 limits assumed): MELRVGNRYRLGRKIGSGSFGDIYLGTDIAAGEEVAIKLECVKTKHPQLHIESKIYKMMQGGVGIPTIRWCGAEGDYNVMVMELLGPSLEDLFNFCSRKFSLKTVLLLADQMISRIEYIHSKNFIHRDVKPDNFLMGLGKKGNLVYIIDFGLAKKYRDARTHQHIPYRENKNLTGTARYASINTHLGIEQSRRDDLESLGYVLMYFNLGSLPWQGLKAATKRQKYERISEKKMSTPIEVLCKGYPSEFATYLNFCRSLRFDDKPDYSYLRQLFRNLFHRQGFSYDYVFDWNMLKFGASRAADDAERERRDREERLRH
Protocol: (§1) FAM20C kinase assay with peptides substrates were performed in 10 μl reactions, with 500 μM ATP, including 3 μCi (0.05 μM) of [gamma-^32P]ATP (6000 Ci/mmol, PerkinElmer), 50 mM Tris (pH 7.0), 10 mM MnCl2, 0.1% BSA, purified FAM20C:V5 and peptides. Casein Kinase I (500 units, NEB) was used as a control kinase. mutant versions (5 ng, […]), and peptides (2.5 μg, 1 nmol as a standard condition. 250 ng, […] in FAM20C mutants). Reactions were stopped by adding 1.5 μl 0.1N—HCl, and one half of the reaction volume was pipetted on to P81 phospho-cellulose filter paper^27. The filter papers were washed with 0.5% phosphoric acid and subjected to liquid scintillation counting.

FAM20C [1] = molecular target: T2, FAM20C (Mus musculus, UniProt Q5MJS3); experiment: FAM20C kinase assay with peptide substrates (P81 phosphocellulose paper); assay type: biochemical; settings: in vitro kinase reaction, FIG. 6
T2 construct: His (from vector pcDNA3.1/V5-His B) (C); made in house; host or cells: HEK293T
T2 sequence (Q5MJS3 88-579): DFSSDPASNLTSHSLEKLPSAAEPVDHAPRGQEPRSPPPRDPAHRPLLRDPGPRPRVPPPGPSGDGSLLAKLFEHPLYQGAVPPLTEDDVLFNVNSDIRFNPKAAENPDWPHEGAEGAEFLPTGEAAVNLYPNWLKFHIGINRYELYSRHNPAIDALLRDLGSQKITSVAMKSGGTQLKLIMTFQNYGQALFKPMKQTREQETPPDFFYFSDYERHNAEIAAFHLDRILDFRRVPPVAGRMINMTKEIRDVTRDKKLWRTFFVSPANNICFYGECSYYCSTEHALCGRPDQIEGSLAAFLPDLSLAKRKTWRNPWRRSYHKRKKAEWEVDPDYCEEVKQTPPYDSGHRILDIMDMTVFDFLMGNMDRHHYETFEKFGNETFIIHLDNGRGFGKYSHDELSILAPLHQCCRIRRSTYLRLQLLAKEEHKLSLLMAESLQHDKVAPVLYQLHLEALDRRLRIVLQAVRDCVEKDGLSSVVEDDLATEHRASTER
Protocol: FAM20C kinase assays were performed in 10 μl reactions, with 500 μM ATP, including 3 μCi (0.05 μM) of [gamma-^32P]ATP (6000 Ci/mmol, PerkinElmer), 50 mM Tris (pH 7.0), 10 mM MnCl2, 0.1% BSA, purified FAM20C:V5 (5 ng, […]), and dephosphorylated alpha-Casein (0.1 μg, Sigma). The kinase reaction was linear at 5 minutes, and the reaction rate was dependent on enzyme and substrate concentrations. Reactions were stopped by adding SDS sample buffer and boiling, and one half of the reaction volume was subjected to SDS-PAGE. Radioactivity within the gels was detected using a Molecular Dynamics Phosphor Imager. For quantitation of gamma-^32P incorporation, bands were cut out of the gels using the Phosphor Imager pictures as a reference, and then counted by liquid scintillation using a Beckman Coulter LC6500. Myelin Basic Protein (0.5 μg, NEB) and affinity-purified Fat2-3:FLAG (0.1 μg)^8 were used as control substrates. To determine pH-dependency, the pH in the reaction buffer was varied using Tris-HCl buffers. Synthesized peptides were designed from the sequence of human Osteopontin 115Asp to 132Leu, adding three basic amino acids (Arg-Lys-Arg) to its N-terminus to enable peptide binding to phosphocellulose paper (P81, Upstate). Peptides were purchased from Peptide2.0. Peptide1 ([…]; SEQ ID NO: 41), Peptide2 ([…]; SEQ ID NO: 42), Peptide3 ([…]; SEQ ID NO: 43), and Peptide4 ([…]; SEQ ID NO: 44).
as §1

[2] = tested on: Golgi apparatus casein kinase (G-CK); settings: literature value (ref. 20), cited from earlier work
FAM20C [3] = molecular target: T2, FAM20C; experiment: FAM20C in vitro kinase assay with dephosphorylated alpha-Casein as substrate; assay type: biochemical; settings: 5 minute assays
Protocol: For FAM20C:V5 purification, pcDNA-FAM20C:V5 was transfected to HEK293T cells, and FAM20C:V5 was purified from conditioned media using anti-V5 agarose beads (Sigma). Condition media were incubated with anti-V5 affinity gel (Sigma) overnight at 4° C. Agarose beads were collected by centrifugation, and washed 5 times with TBS. Proteins were eluted using V5 peptides in TBS (Sigma, final concentration: 100 μg/ml). For purification of OPN:FLAG, BSP:FLAG, DMP1:FLAG, DSPP:FLAG and MEPE:FLAG, condition media were incubated with anti-FLAG M2 affinity gel (Sigma) overnight at 4° C. Agarose beads were collected by centrifugation, and washed 5 times with TBS. Purified quantification was performed on gels stained by SYPRO Ruby Protein Gel Stain (Invitrogen), using BSA as a standard.
FAM20C kinase assays were performed in 10 μl reactions, with 500 μM ATP, including 3 μCi (0.05 μM) of [gamma-^32P]ATP (6000 Ci/mmol, PerkinElmer), 50 mM Tris (pH 7.0), 10 mM MnCl2, 0.1% BSA, purified FAM20C:V5 (5 ng, […]), and dephosphorylated alpha-Casein (0.1 μg, Sigma). […] Radioactivity within the gels was detected using a Molecular Dynamics Phosphor Imager. For quantitation of gamma-^32P incorporation, bands were cut out of the gels using the Phosphor Imager pictures as a reference, and then counted by liquid scintillation using a Beckman Coulter LC6500. […]

| Compound | phosphorylation of peptide by CKI (Casein Kinase I) | phosphorylation of peptide by FAM20C (FAM20C [1]) | also measured |
| --- | --- | --- | --- |
| RKRDDSHQADESHHADEADEL [OPN-ASARM^3S-A, peptide in which only the three G-CK consensus sites were changed to Ala] | reduced, but similar levels of activity | phosphorylated much less effectively | – |
| Casein | – | – | Km ([2]; read-out: Km for α-Casein for G-CK): 12 µM; Km (FAM20C [3]; linear reaction conditions, average of several independent experiments, read-out: Michaelis constant (Km) of FAM20C for Casein): 1.5 µM |
| RKRDDAHQSDEAHHSDESDEL [OPN-ASARM^2S-A, derivative in which the other two Ser residues were changed to Ala] | reduced, but similar levels of activity | still efficiently phosphorylated | – |
| Nc1ncnc2c1ncn2[C@@H]1O[C@H](COP(=O)(O)OP(=O)(O)OP(=O)(O)O)[C@@H](O)[C@H]1O [ATP] | – | – | Km ([2]; read-out: Km for ATP originally measured for G-CK): 80 µM; Km (FAM20C [3]; FAM20C, dephosphorylated alpha casein as substrate, read-out: Km for ATP): 78 µM |
| RKRDDSHQSDESHHSDESDEL [OPN-ASARM, amino acids 115-132 of human OPN with N-terminal Arg-Lys-Arg] | phosphorylated | is a FAM20C substrate | – |
